One substance from PMC6044645 can be followed below.

The assay has as its target Class I polyhydroxyalkanoate synthase (PhaC) from Rhodovulum sulfidophilum (Rhodovulum sulfidophilum). As to the kind of experiment: SEC.

“Class I polyhydroxyalkanoate synthase (PhaC) from Rhodovulum sulfidophilum (from UniProt A0ABS1RUN8 1-567) (enzyme)” registered a stoichiometry N of 2.
